Assay results as given in patent US20250019454A1 (BIOCYTOGEN PHARMACEUTICALS BEIJING, published 2025).

Key:
[1] = target: T1, ΔCRD4-TNFR2 protein (with CRD4 deletion), on CHO-S cells (human, UniProt P20333 23-461); assay: FACS on CHO-S cells with ΔCRD4-TNFR2, AF647 anti-human IgG Fc secondary
T1 construct: also called CHO-SΔCRD4-TNFR2; TNFR2 lacking CRD4
T1 sequence: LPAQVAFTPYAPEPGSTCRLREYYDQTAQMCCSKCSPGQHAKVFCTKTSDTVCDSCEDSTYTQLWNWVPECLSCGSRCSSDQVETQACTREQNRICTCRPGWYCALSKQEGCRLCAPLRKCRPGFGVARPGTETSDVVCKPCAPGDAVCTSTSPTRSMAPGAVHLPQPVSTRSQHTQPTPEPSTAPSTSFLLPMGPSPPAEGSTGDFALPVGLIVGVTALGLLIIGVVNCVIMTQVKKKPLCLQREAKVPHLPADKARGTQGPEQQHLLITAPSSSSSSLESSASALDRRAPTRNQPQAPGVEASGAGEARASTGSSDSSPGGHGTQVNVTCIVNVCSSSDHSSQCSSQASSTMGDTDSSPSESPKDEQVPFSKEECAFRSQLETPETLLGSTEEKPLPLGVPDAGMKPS
Source text: (§1) TNFR2 has four cysteine rich domains (CRD). In another experiment, FACS was used to detect the binding of anti-hTNFR2 antibodies to TNFR2 proteins with different structural domains. Secondary antibody (Alexa Fluor® 647 AffiniPure F(ab′) 2 Fragment Goat Anti-Human IgG, Fcγ fragment specific, Jackson ImmunoResearch Laboratories, Inc., Cat #: 151524) was used. The fluorescence-labeled secondary antibody can attach to the Fc region of the anti-hTNFR2 antibodies so that the anti-hTNFR2 antibodies that are bound to the ΔCRD cells can be detected by FACS. Specifically, ΔCRD1-TNFR2 protein (with CRD1 deleteion), ΔCRD2-TNFR2 protein (with CRD2 deleteion), ΔCRD3-TNFR2 protein (with CRD3 deleteion) or ΔCRD4-TNFR2 protein (with CRD4 deleteion) were expressed in CHO-S cells respectively, and then the binding between the cells and different anti-hTNFR2 antibodies was detected.

[2] = target: T2, ΔCRD2-TNFR2 protein (with CRD2 deletion), on CHO-S cells (human, UniProt P20333 23-461); assay: FACS on CHO-S cells with ΔCRD2-TNFR2, AF647 anti-human IgG Fc secondary
T2 construct: also called CHO-SΔCRD2-TNFR2
T2 sequence: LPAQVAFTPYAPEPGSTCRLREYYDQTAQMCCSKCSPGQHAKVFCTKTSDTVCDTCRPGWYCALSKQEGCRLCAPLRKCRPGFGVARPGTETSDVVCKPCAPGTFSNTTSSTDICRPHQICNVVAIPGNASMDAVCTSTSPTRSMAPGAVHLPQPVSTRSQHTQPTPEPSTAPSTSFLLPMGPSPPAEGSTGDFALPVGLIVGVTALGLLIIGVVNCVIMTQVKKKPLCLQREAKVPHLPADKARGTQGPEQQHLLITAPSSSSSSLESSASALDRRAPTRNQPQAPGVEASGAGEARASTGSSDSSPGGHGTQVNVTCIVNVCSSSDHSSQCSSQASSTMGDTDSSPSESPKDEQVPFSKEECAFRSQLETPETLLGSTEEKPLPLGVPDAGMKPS
Source text: as §1

[3] = target: T3, ΔCRD1-TNFR2 protein (with CRD1 deletion), on CHO-S cells (human, UniProt P20333 23-461); assay: FACS on CHO-S cells with ΔCRD1-TNFR2, AF647 anti-human IgG Fc secondary
T3 construct: also called CHO-SΔCRD1-TNFR2
T3 sequence: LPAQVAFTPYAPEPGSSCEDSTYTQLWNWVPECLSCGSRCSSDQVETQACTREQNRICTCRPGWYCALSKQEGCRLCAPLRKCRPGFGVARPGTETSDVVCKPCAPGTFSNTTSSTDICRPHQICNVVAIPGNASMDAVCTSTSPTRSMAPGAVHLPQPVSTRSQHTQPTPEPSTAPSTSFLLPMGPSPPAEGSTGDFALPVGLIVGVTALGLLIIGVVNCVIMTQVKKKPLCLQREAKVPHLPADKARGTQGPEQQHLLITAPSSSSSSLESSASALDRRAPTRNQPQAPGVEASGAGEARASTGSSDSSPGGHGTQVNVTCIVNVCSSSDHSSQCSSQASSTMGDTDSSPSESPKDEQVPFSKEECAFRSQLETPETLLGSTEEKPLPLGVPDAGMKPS
Source text: as §1

[4] = target: T4, ΔCRD3-TNFR2 protein (with CRD3 deletion), on CHO-S cells (human, UniProt P20333 23-461); assay: FACS on CHO-S cells with ΔCRD3-TNFR2
T4 construct: also called CHO-SΔCRD3-TNFR2; TNFR2 lacking CRD3
T4 sequence: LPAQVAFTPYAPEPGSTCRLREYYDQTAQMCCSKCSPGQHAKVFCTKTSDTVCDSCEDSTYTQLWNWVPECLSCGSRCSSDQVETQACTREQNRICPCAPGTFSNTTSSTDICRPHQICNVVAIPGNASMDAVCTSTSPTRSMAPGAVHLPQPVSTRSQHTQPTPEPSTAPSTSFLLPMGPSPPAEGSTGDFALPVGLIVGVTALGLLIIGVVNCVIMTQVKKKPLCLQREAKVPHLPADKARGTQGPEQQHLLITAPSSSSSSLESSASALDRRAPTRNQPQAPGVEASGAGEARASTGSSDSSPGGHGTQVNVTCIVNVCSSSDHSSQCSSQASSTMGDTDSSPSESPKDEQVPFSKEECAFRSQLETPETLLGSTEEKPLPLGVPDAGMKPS
Source text: as §1

[5] = target: T1, ΔCRD4-TNFR2 protein (with CRD4 …); assay: FACS on CHO-S cells with ΔCRD4-TNFR2
Source text: as §1

[6] = target: T4, ΔCRD3-TNFR2 protein (with CRD3 …); assay: FACS on CHO-S cells with ΔCRD3-TNFR2, AF647 anti-human IgG Fc secondary
Source text: as §1

- positive rate of binding (% of cells) [1]: 0.83%
- positive rate of binding (% of cells) [2]: 75.6%
- positive rate of binding (% of cells) [3]: 66.5%
- binding result [4]: no binding
- binding result [5]: no binding
- positive rate of binding (% of cells) [6]: 0.44%
B1: BC-1B6-IgG1-LALA (antibody, V domains shown)
VH: QVQLVESGGGVVQPGRSLRLSCAASGFTFSNFGMHWVRQAPGKGLEWVAVIWYEGSDKYYADSVKGRFTISRDNSKNTLYLQMNSLRAEDTAVYYCARDSSWGFLLYGMDVWGQGTTVTVSS
VL: DVVMTQSPLSLPVTLGQPASISCRSSRSLEYSDGNTYLNWFQQRPGQSPRRLIYKVSNRDSGVPDRFSGSGSGTAFTLKISGVEAEDVGVYYCMQGTHWPPTFGGGTKVEIK
